From patent US20140179896A1 (published 2014)
Changes are numbered by the printed parent chain.

B1: A4 (designed binder)
chain: EVVAATPTSLLISWRHPHFPTRYYRITYGETGGNSPVQEFTVPLQPPTATISGLKPGVDYTITGYAVTDGYNDRLLFIPISINYRT
notes: 10Fn3 clone, Del 1-8
B2: B3 (designed binder)
chain: B1 chain with D69M, G70E, Y71R, D73G, L75E, F77M, I78T
notes: 10Fn3 clone, Del 1-8
B3: D1 (designed binder)
chain: B1 chain with D69V, G70E, Y71R, D73G, L75M, F77M, I78T
notes: 10Fn3 clone, Del 1-8
B4: C11 (designed binder)
chain: B1 chain with D69V, G70E, Y71R, D73G, L75V, F77I, I78V
notes: 10Fn3 clone, Del 1-8
B5: A12 (designed binder)
chain: B1 chain with D69V, G70E, Y71W, D73G, L75V, F77M, I78T
notes: 10Fn3 clone, Del 1-8
B6: C6 (designed binder)
chain: B1 chain with D69L, G70E, Y71R, D73G, L75V, F77M, I78T
notes: 10Fn3 clone, Del 1-8
B7: C3 (designed binder)
chain: B1 chain with D69L, G70E, Y71R, D73G, L75E, F77M
notes: 10Fn3 clone, Del 1-8
B8: C2 (designed binder)
chain: B1 chain with D69V, G70E, Y71R, D73G, L75E, F77L, I78W
notes: 10Fn3 clone, Del 1-8
B9: B10 (designed binder)
chain: B1 chain with D69L, G70E, Y71R, D73G, L75E, F77N, I78T
notes: 10Fn3 clone, Del 1-8
B10: B6 (designed binder)
chain: B1 chain with D69L, G70E, Y71R, D73G, R74K, L75E, F77M, I78T
notes: 10Fn3 clone, Del 1-8
B11: C8 (designed binder)
chain: B1 chain with D69L, G70E, Y71R, D73G, L75V, F77I, I78T
notes: 10Fn3 clone, Del 1-8
B12: D7 (designed binder)
chain: B1 chain with D69V, G70E, Y71R, D73G, R74K, L75V, F77M, I78T
notes: 10Fn3 clone, Del 1-8
B13: D6 (designed binder)
chain: B1 chain with D69V, G70E, Y71R, D73G, R74K, L75T, F77M, I78T
notes: 10Fn3 clone, Del 1-8
B14: C7 (designed binder)
chain: B1 chain with D69H, G70E, Y71R, D73G, L75V, F77M, I78T
notes: 10Fn3 clone, Del 1-8
B15: A8 (designed binder)
chain: B1 chain with Y71L, D73G, R74K, L75Y, I78V
notes: 10Fn3 clone, Del 1-8
B16: D12 (designed binder)
chain: B1 chain with D69V, G70E, Y71R, D73G, L75K, F77M, I78T
notes: 10Fn3 clone, Del 1-8
B17: D11 (designed binder)
chain: B1 chain with D69V, G70E, Y71R, D73G, R74H, L75K, I78T
notes: 10Fn3 clone, Del 1-8
B18: C10 (designed binder)
chain: B1 chain with D69V, G70E, Y71R, D73G, L75V, F77I
notes: 10Fn3 clone, Del 1-8
B19: B5 (designed binder)
chain: B1 chain with D69Q, G70E, Y71R, D73G, L75E, F77M, I78T
notes: 10Fn3 clone, Del 1-8
B20: C12 (designed binder)
chain: B1 chain with D69V, G70E, Y71R, D73G, L75V, F77S, I78V
notes: 10Fn3 clone, Del 1-8
B21: A10 (designed binder)
chain: B1 chain with D69F, Y71W, D73G, L75E, F77L, I78T
notes: 10Fn3 clone, Del 1-8
B22: C1 (designed binder)
chain: B1 chain with D69Q, G70E, Y71R, D73G, L75E, F77R, I78T
notes: 10Fn3 clone, Del 1-8
B23: D5 (designed binder)
chain: B1 chain with D69V, G70E, Y71R, D73G, L75T, F77M, I78M
notes: 10Fn3 clone, Del 1-8
B24: D4 (designed binder)
chain: B1 chain with D69V, G70E, Y71R, D73G, L75T, I78T
notes: 10Fn3 clone, Del 1-8
B25: D9 (designed binder)
chain: B1 chain with D69E, G70E, Y71R, D73G, L75V, I78T
notes: 10Fn3 clone, Del 1-8
B26: A9 (designed binder)
chain: B1 chain with D69E, Y71W, L75E, I78V
notes: 10Fn3 clone, Del 1-8
B27: D2 (designed binder)
chain: B1 chain with D69V, G70E, Y71R, D73G, L75N, F77M, I78T
notes: 10Fn3 clone, Del 1-8
B28: C9 (designed binder)
chain: B1 chain with D69V, G70E, Y71R, D73G, R74L, L75V, F77M, I78T
notes: 10Fn3 clone, Del 1-8
B29: E8 (designed binder)
chain: B1 chain with D69E, G70E, Y71W, D73G, L75V, F77M, I78T
notes: 10Fn3 clone, Del 1-8
B30: D3 (designed binder)
chain: B1 chain with D69V, G70E, Y71R, D73G, L75A, F77M, I78T
notes: 10Fn3 clone, Del 1-8
B31: B7, B8 (designed binder)
chain: B1 chain with D69V, G70E, Y71R, D73G, L75E, F77L, I78T
notes: 10Fn3 clone, Del 1-8
B32: A7 (designed binder)
chain: B1 chain with Y71P, D73N, L75E, F77I, I78V
notes: 10Fn3 clone, Del 1-8
B33: B12 (designed binder)
chain: B1 chain with D69V, G70E, Y71R, D73G, L75E, F77R, I78T
notes: 10Fn3 clone, Del 1-8
B34: E10 (designed binder)
chain: B1 chain with D69E, Y71R, D73G, L75E
B35: B4 (designed binder)
chain: B1 chain with D69N, G70E, Y71R, D73G, L75E, F77M, I78T
notes: 10Fn3 clone, Del 1-8
B36: A11 (designed binder)
chain: B1 chain with D69L, G70E, Y71W, D73N, L75V, F77M, I78T
notes: 10Fn3 clone, Del 1-8

Legend:
[1] = molecular target: T1, mouse vascular endothelial growth factor receptor-2 Fc chimera (Flk-1-Fc) (mouse, UniProt P35918 20-762); test: radioactive equilibrium binding assay, 1 nM Flk-1-Fc, % of input bound
T1 construct: Bought from R&D Systems; also called mouse VEGFR-2; not shown: Fc part of the purchased chimera, not specified
Experimental: (§1) To prepare ³⁵S-labeled binding proteins for analysis, mRNA was prepared as described above for RNA-protein fusion production but the linker ligation step was omitted. The mRNA was expressed using rabbit reticulocyte lysate translation kit (Ambion) in the presence of ³⁵S-labeled Met at 30° C. for 1 hour. Expressed protein was purified on M2-agarose Flag beads (Sigma) as described above. This procedure produced the encoded protein without the nucleic acid tail. In a direct binding assay, VEGF-R2-Fc fusions in concentrations ranging from 0 to 200 nM were added to a constant concentration of the purified protein (0.2 or 0.5 nM) and incubated at 30° C. for 1 hour in buffer B. The receptor-binder complexes were captured using Protein A magnetic beads for another 10 minutes at room temperature using a Kingfisher™ The beads were washed with six reaction volumes of buffer B. The protein was eluted from the beads with 100 μL of 0.1 M KOH. […] of the reaction mixture and elution were dried onto a LumaPlate-96 (Packard) and the amount of ³⁵S on the plate was measured using a TopCount NXT instrument (Packard). The amount of fibronectin-based scaffold protein bound to the target was estimated as a percent of radioactivity eluted from Protein A magnetic beads compare to radioactivity in the reaction mixture. Nonspecific binding of fibronectin-based scaffold proteins to the beads was determined by measuring binding in the absence of KDR-Fc and represented less than 1-2% of the input. Specific binding was obtained through subtraction of nonspecific binding from total binding. Data was analyzed using the GraphPad Prizm software (GraphPad Software, Inc, San Diego, Calif.), fitted using a one site, non-linear binding equation.

[2] = molecular target: T2, human vascular endothelial growth factor receptor-2 Fc chimera (KDR-Fc) (human, UniProt P35968 20-764); test: radioactive equilibrium binding assay, 1 nM KDR-Fc, % of input bound
T2 construct: range 1-764; also called human VEGFR-2; not shown: human IgG1 Fc
Experimental: as §1

T1 sequence (P35918 20-762, change not shown): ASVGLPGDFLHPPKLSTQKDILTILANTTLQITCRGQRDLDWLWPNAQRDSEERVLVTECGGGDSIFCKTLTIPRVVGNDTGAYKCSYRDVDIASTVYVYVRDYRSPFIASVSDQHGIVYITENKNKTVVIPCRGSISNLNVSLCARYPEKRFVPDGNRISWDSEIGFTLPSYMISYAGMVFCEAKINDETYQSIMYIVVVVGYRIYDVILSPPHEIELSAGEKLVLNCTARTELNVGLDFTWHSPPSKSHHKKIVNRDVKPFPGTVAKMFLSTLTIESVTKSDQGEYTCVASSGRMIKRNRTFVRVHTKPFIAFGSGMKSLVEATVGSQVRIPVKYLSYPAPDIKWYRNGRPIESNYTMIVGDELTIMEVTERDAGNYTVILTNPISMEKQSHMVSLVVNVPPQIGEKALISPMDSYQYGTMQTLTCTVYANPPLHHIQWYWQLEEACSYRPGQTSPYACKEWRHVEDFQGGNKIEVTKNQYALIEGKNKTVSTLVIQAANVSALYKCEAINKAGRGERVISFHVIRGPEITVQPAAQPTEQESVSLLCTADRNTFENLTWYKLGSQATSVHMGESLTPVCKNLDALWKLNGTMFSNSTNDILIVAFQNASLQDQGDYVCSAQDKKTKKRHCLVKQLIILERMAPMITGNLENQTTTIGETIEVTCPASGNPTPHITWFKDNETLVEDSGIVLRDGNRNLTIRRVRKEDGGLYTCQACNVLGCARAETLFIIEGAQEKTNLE
T2 sequence (P35968 20-764 limits assumed, change not shown, form in doubt): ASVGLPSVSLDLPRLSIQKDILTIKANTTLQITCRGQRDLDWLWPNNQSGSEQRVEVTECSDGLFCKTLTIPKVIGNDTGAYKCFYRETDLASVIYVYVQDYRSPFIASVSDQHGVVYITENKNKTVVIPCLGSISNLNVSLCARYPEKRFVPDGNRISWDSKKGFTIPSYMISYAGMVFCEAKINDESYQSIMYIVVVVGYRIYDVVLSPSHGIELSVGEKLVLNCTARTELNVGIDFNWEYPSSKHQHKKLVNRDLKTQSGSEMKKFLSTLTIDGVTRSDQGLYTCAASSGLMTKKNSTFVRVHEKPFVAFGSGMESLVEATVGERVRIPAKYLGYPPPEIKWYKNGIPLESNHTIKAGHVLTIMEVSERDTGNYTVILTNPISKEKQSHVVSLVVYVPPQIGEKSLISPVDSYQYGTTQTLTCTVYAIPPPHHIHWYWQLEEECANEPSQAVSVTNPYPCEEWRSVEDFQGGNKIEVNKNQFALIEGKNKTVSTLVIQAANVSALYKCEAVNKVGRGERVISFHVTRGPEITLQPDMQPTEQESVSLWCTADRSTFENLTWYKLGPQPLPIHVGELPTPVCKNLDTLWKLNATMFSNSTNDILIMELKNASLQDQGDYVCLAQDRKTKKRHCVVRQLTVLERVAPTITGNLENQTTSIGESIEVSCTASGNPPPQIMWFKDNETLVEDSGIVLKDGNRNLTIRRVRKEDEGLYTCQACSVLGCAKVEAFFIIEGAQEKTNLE

Row | Binder | Binding to 1 nM Flk-1, % [1] [%] | Binding to 1 nM KDR, % [2] [%]
1 | B1 | 2 | 46
2 | B2 | 27 | 33
3 | B3 | 38 | 38
4 | B4 | 21 | 19
5 | B5 | 10 | 40
6 | B6 | 49 | 36
7 | B7 | 17 | 31
8 | B8 | 16 | 40
9 | B9 | 23 | 15
10 | B10 | 11 | 23
11 | B11 | 34 | 30
12 | B12 | 27 | 39
13 | B13 | 30 | 32
14 | B14 | 40 | 32
15 | B15 | 4 | 38
16 | B16 | 47 | 46
17 | B17 | 3 | 24
18 | B18 | 17 | 24

Row | Binder | Binding to 1 nM Flk-1, % [1] [%] | Binding to 1 nM KDR, % [2] [%]
19 | B19 | 24 | 27
20 | B20 | 20 | 24
21 | B21 | 4 | 34
22 | B22 | 13 | 28
23 | B23 | 23 | 38
24 | B24 | 44 | 27
25 | B25 | 40 | 31
26 | B26 | 4 | 31
27 | B27 | 30 | 35
28 | B28 | 7 | 33
29 | B29 | 10 | 51
30 | B30 | 30 | 36
31 | B31 | 10 | 18
32 | B32 | 2 | 18
33 | B33 | 24 | 29
34 | B34 | 3 | 53
35 | B35 | 12 | 19
36 | B36 | 6 | 26
